Test results reported in patent publication US20250243261A1 (CZ BIOHUB SF, published 2025).
Positions count from the first letter of the chain named. Numbers in names are those of the source. Read-outs that look alike come from different tables or passages of the source.

T1: full-length Ebola GP on pseudotyped lentivirus (Zaire ebolavirus, UniProt Q05320 33-676)
T1 sequence: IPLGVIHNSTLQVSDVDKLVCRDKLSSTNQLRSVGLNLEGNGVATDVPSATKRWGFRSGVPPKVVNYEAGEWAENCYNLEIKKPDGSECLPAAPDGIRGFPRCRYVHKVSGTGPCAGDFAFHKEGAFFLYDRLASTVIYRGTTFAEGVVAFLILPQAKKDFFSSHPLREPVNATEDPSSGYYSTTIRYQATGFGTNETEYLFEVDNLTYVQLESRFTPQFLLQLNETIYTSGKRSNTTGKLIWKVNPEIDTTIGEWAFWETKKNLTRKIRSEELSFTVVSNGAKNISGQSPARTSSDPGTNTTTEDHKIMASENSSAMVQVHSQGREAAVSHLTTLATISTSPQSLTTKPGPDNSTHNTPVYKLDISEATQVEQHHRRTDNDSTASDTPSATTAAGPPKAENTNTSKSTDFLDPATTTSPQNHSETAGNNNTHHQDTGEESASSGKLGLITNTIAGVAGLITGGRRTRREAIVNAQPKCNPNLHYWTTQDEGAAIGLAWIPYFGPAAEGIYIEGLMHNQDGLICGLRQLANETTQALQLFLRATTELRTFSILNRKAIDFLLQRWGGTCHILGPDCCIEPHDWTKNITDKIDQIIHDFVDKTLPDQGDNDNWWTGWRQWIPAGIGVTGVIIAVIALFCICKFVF

B1: mAb114 VH D42G-A68T-S79Y / VL V43A IgG (antibody, V domains shown)
VH: EVQLVESGGGLIQPGGSLRLSCAASGFALRMYDMHWVRQTIGKRLEWVSAVGPSGDTYYADSVKGRFTVSRENAKNSLYLQMNSLTAGDTAIYYCVRSDRGVAGLFDSWGQGILVTVSS
VL: DIQMTQSPSSLSASVGDRITITCRASQAFDNYVAWYQQRPGKAPKLLISAASALHAGVPSRFSGSGSGTHFTLTISSLQPEDVATYYCQNYNSAPLTFGGGTKVEIK
B2: mAb114 WT IgG (antibody, V domains shown)
VH: B1 VH with G42D, T68A, Y79S
VL: B1 VL with A43V
B3: mAb114 UCA VH P60A-G61D / VL V43A IgG (antibody, V domains shown)
VH: EVQLVESGGGLVQPGGSLRLSCAASGFTFSSYDMHWVRQATGKGLEWVSAIGTAGDTYYADSVKGRFTISRENAKNSLYLQMNSLRAGDTAVYYCVRSDRGVAGLFDSWGQGTLVTVSS
VL: DIQMTQSPSSLSASVGDRVTITCRASQGISNYLAWYQQKPGKAPKLLIYAASTLQSGVPSRFSGSGSGTDFTLTISSLQPEDVATYYCQKYNSAPLTFGGGTKVEIK
B4: mAb114 WT Fab (Fab, V domains shown)
VH: B1 VH with G42D, T68A, Y79S
VL: B1 VL with A43V
B5: mAb114 VH A68T-E72D-S79Y-I113T / VL V43A Fab (Fab, V domains shown)
VH: B1 VH with G42D, E72D, I113T
VL: B1 VL
B6: mAb114 VH D42G-A68T-S79Y / VL V43A Fab (Fab, V domains shown)
VH: B1 VH
VL: B1 VL
B7: mAb114 VH I41P-D42G-A68T-S79Y-I113T / VL V43A Fab (Fab, V domains shown)
VH: B1 VH with I41P, I113T
VL: B1 VL
B8: mAb114 UCA WT IgG (antibody, V domains shown)
VH: B3 VH with A60P, D61G
VL: B3 VL with A43V
B9: mAb114 UCA WT Fab (Fab, V domains shown)
VH: B3 VH with A60P, D61G
VL: B3 VL with A43V
B10: mAb114 UCA VH T41P IgG (antibody, V domains shown)
VH: B3 VH with T41P, A60P, D61G
VL: B3 VL with A43V
B11: mAb114 UCA VH A54G IgG (antibody, V domains shown)
VH: B3 VH with A54G, A60P, D61G
VL: B3 VL with A43V
B12: mAb114 UCA VH P60A IgG (antibody, V domains shown)
VH: B3 VH with D61G
VL: B3 VL with A43V
B13: mAb114 UCA VH G61D IgG (antibody, V domains shown)
VH: B3 VH with A60P
VL: B3 VL with A43V
B14: mAb114 UCA VH E72D IgG (antibody, V domains shown)
VH: B3 VH with A60P, D61G, E72D
VL: B3 VL with A43V
B15: mAb114 UCA VH G88E IgG (antibody, V domains shown)
VH: B3 VH with A60P, D61G, G88E
VL: B3 VL with A43V
B16: mAb114 UCA VH V96A IgG (antibody, V domains shown)
VH: B3 VH with A60P, D61G, V96A
VL: B3 VL with A43V
B17: mAb114 UCA VL V43A IgG (antibody, V domains shown)
VH: B3 VH with A60P, D61G
VL: B3 VL
B18: mAb114 UCA VL K90Q IgG (antibody, V domains shown)
VH: B3 VH with A60P, D61G
VL: B3 VL with A43V, K90Q
B19: mAb114 UCA VH P60A-G61D IgG (antibody, V domains shown)
VH: B3 VH
VL: B3 VL with A43V
B20: mAb114 UCA VH T41P-P60A-G61D-E72D-G88E-V96A IgG (antibody, V domains shown)
VH: B3 VH with T41P, E72D, G88E, V96A
VL: B3 VL with A43V
B21: mAb114 UCA VH G88E / VL V43A IgG (antibody, V domains shown)
VH: B3 VH with A60P, D61G, G88E
VL: B3 VL
B22: mAb114 UCA VH V96A / VL V43A IgG (antibody, V domains shown)
VH: B3 VH with A60P, D61G, V96A
VL: B3 VL
B23: mAb114 UCA VH P60A-G61D / VL V43A Fab (Fab, V domains shown)
VH: B3 VH
VL: B3 VL
B24: mAb114 UCA VH P60A-G61D-G88E-V96A / VL V43A IgG (antibody, V domains shown)
VH: B3 VH with G88E, V96A
VL: B3 VL
B25: mAb114 UCA VH T41P-P60A-G61D-E72D-G88E-V96A / VL V43A IgG (antibody, V domains shown)
VH: B3 VH with T41P, E72D, G88E, V96A
VL: B3 VL

Experiments:
[1] = biological target: T2, Ebola GP ectodomain (Mayinga, Zaire, 1976) with the mucin-like domain deleted (Zaire ebolavirus (Mayinga, 1976), UniProt Q05320 33-650)
[2] = biological target: T1, full-length Ebola GP on pseudotyped …; assay: cell-based or functional assay
[3] = biological target: T2, Ebola GP ectodomain (Mayinga, Zaire, …); remark: listed apart in the source
[4] = biological target: T2, Ebola GP ectodomain (Mayinga, Zaire, …); assay: BLI, Fab
[5] = biological target: T2, Ebola GP ectodomain (Mayinga, Zaire, …); remark: listed apart in the source
[6] = biological target: T2, Ebola GP ectodomain (Mayinga, Zaire, …); remark: listed apart in the source
[7] = biological target: T2, Ebola GP ectodomain (Mayinga, Zaire, …); assay: BLI, IgG
[8] = biological target: T2, Ebola GP ectodomain (Mayinga, Zaire, …); assay: BLI, Fab; remark: listed apart in the source

Binder	Kd [3]	further results
B1	–	Kd [1]: < 0.001 nM; Ebola GP pseudotyped lentivirus IC50 [2]: 0.96 nM
B2	–	Kd [1]: < 0.001 nM
B3	5 nM	fold improvement in Kd over wildtype [1]: 90 fold
B4	–	Kd [4]: 0.17 nM
B5	–	Kd [5]: 0.076 nM
B6	–	Kd [5]: 0.06 nM; fold improvement in Kd vs wildtype [6]: 3 fold
B7	–	Kd [5]: 0.069 nM
B8	–	Kd [7]: 400 nM
B9	–	Kd [8]: 75000 nM
B10	100 nM	–
B11	80000 nM	–
B12	40000 nM	–
B13	100 nM	–
B14	200 nM	–
B15	150 nM	–
B16	110 nM	–
B17	60 nM	–
B18	620 nM	–
B19	120 nM	–
B20	33 nM	–
B21	13 nM	–
B22	22 nM	–
B23	480 nM	–
B24	13 nM	–
B25	15 nM	–
